Reference: publication PMC10358891, “The AMP deaminase of the mollusk Helix pomatia is an unexpected member of the adenosine deaminase-related growth factor (ADGF) family” (PLOS ONE, 2023)

Substrate: Nc1ncnc2c1ncn2[C@@H]1O[C@H](COP(=O)(O)O)[C@@H](O)[C@H]1O
Test: spectrophotometric deamination assay, initial rates, Lineweaver-Burk
Assay type: biochemical, Helix pomatia
Settings: 20 mM Tris-HCl pH 7.5, 50 mM NaCl, 25 °C (general assay buffer)
Description: spectrophotometric deamination assay, initial rates, Lineweaver-Burk on […]

B1: HPAMPD (recombinant H. pomatia AMP deaminase) (Helix pomatia) (protein)
chain: LAVRFPTMDEYTNAREELIGSEQYLRVGGSINLNNKEKKLNQFILREKRAIIENSRLNKTQYIPAVSFFLSKSQMESTPIFKIIKDMPKGAALHLHDTASARIDWIVSNATYRDHVYMCMDQDNFVRLTVSGTGPPANSGCEWKLVETERANSGDIAAFDHWLKSNISLLTTDPLVTYPSLDKVWGRFDKHFSQLRGIIYHTPIRRDYYRQILEEFRSDNVQYVEVRSSLSGYYDLDGTVHDPEYGLQLYKAVTEEFVRTYPDFSGAKIIKSTARVKPNTDIFNDVKLSMDLYKRYPGFFLGFDLVAQEDPNTSLLGYIDSLLYPSRQNPPVSLPYYFHAGETNWQGTEVDYNLVDALLLNATRIGHGFALIKHPRVIELVKSRGVAVEVNPVSNQLLGLVKDLRNHAAAPLLAQNVPVVISSDDPGVWEALPMSHDMYVAFMDLVGEDAGLDVLKQLVWNSIQYSSMNATEKKTALKLLQAKWNNFINDSLIKWKLTNKKVI
notes: secreted from Pichia pastoris with alpha-factor signal; C-terminal His10; Endo Hf treated; 58676 Da; ORF 536 residues; homodimer predicted
Q: Which results are given for B1?
A: Km: 25 µM; kcat: 170 per second
